These results are taken from publication PMC9361535.

Experiment in all cases: GFP-Trap pulldown, quantitative mass spectrometry (iBAQ)
For assay [1], the target named is MSRB3. Particulars: cytoplasmic fraction of HeLa cells; read off a plot.
The target of assay [2] is PHLDA2. To be noted: cytoplasmic fraction of HeLa cells; read off a plot.
Assay [3] deals with CBS. Particulars: cytoplasmic fraction of HeLa cells; read off a plot.
Assay [4] deals with DNAJA1. To be noted: cytoplasmic fraction of HeLa cells; read off a plot.
In assay [5] the target is HSPA6/7. Particulars: cytoplasmic fraction of HeLa cells; read off a plot.
The target of assay [6] is SPRYD3. Particulars: cytoplasmic fraction of HeLa cells; read off a plot.
For assay [7], the target named is ASH2L (UniProt Q9UBL3). Particulars: nuclear extracts of HeLa cells; read off a plot.
Assay [8] concerns the target DPY30 (UniProt Q9C005). Particulars: nuclear extracts of HeLa cells; read off a plot.
Assay [9] has as its target HCFC2 (UniProt Q9Y5Z7). To be noted: nuclear extracts of HeLa cells; read off a plot.
In assay [10] the target is HSPA8 (UniProt P11142). To be noted: cytoplasmic fraction of HeLa cells; read off a plot.
The target of assay [11] is JunD (UniProt P17535). Particulars: nuclear extracts of HeLa cells, read off a plot.
The target in assay [12] is KMT2A (UniProt Q03164). Particulars: nuclear extracts of HeLa cells, read off a plot.
For assay [13], the target named is KMT2B (UniProt Q9UMN6). To be noted: nuclear extracts of HeLa cells; read off a plot.
Assay [14] has as its target PSIP1 (UniProt O75475). Particulars: nuclear extracts of HeLa cells; read off a plot.
Assay [15] addresses RBBP5 (UniProt Q15291). Particulars: nuclear extracts of HeLa cells; read off a plot.
Assay [16] deals with WDR5 (UniProt P61964). Particulars: nuclear extracts of HeLa cells; read off a plot.
Assay [17] concerns the target ubiquitin (UniProt P62979). To be noted: cytoplasmic fraction of HeLa cells; read off a plot.

Chain of KMT2A (Q03164 whole entry): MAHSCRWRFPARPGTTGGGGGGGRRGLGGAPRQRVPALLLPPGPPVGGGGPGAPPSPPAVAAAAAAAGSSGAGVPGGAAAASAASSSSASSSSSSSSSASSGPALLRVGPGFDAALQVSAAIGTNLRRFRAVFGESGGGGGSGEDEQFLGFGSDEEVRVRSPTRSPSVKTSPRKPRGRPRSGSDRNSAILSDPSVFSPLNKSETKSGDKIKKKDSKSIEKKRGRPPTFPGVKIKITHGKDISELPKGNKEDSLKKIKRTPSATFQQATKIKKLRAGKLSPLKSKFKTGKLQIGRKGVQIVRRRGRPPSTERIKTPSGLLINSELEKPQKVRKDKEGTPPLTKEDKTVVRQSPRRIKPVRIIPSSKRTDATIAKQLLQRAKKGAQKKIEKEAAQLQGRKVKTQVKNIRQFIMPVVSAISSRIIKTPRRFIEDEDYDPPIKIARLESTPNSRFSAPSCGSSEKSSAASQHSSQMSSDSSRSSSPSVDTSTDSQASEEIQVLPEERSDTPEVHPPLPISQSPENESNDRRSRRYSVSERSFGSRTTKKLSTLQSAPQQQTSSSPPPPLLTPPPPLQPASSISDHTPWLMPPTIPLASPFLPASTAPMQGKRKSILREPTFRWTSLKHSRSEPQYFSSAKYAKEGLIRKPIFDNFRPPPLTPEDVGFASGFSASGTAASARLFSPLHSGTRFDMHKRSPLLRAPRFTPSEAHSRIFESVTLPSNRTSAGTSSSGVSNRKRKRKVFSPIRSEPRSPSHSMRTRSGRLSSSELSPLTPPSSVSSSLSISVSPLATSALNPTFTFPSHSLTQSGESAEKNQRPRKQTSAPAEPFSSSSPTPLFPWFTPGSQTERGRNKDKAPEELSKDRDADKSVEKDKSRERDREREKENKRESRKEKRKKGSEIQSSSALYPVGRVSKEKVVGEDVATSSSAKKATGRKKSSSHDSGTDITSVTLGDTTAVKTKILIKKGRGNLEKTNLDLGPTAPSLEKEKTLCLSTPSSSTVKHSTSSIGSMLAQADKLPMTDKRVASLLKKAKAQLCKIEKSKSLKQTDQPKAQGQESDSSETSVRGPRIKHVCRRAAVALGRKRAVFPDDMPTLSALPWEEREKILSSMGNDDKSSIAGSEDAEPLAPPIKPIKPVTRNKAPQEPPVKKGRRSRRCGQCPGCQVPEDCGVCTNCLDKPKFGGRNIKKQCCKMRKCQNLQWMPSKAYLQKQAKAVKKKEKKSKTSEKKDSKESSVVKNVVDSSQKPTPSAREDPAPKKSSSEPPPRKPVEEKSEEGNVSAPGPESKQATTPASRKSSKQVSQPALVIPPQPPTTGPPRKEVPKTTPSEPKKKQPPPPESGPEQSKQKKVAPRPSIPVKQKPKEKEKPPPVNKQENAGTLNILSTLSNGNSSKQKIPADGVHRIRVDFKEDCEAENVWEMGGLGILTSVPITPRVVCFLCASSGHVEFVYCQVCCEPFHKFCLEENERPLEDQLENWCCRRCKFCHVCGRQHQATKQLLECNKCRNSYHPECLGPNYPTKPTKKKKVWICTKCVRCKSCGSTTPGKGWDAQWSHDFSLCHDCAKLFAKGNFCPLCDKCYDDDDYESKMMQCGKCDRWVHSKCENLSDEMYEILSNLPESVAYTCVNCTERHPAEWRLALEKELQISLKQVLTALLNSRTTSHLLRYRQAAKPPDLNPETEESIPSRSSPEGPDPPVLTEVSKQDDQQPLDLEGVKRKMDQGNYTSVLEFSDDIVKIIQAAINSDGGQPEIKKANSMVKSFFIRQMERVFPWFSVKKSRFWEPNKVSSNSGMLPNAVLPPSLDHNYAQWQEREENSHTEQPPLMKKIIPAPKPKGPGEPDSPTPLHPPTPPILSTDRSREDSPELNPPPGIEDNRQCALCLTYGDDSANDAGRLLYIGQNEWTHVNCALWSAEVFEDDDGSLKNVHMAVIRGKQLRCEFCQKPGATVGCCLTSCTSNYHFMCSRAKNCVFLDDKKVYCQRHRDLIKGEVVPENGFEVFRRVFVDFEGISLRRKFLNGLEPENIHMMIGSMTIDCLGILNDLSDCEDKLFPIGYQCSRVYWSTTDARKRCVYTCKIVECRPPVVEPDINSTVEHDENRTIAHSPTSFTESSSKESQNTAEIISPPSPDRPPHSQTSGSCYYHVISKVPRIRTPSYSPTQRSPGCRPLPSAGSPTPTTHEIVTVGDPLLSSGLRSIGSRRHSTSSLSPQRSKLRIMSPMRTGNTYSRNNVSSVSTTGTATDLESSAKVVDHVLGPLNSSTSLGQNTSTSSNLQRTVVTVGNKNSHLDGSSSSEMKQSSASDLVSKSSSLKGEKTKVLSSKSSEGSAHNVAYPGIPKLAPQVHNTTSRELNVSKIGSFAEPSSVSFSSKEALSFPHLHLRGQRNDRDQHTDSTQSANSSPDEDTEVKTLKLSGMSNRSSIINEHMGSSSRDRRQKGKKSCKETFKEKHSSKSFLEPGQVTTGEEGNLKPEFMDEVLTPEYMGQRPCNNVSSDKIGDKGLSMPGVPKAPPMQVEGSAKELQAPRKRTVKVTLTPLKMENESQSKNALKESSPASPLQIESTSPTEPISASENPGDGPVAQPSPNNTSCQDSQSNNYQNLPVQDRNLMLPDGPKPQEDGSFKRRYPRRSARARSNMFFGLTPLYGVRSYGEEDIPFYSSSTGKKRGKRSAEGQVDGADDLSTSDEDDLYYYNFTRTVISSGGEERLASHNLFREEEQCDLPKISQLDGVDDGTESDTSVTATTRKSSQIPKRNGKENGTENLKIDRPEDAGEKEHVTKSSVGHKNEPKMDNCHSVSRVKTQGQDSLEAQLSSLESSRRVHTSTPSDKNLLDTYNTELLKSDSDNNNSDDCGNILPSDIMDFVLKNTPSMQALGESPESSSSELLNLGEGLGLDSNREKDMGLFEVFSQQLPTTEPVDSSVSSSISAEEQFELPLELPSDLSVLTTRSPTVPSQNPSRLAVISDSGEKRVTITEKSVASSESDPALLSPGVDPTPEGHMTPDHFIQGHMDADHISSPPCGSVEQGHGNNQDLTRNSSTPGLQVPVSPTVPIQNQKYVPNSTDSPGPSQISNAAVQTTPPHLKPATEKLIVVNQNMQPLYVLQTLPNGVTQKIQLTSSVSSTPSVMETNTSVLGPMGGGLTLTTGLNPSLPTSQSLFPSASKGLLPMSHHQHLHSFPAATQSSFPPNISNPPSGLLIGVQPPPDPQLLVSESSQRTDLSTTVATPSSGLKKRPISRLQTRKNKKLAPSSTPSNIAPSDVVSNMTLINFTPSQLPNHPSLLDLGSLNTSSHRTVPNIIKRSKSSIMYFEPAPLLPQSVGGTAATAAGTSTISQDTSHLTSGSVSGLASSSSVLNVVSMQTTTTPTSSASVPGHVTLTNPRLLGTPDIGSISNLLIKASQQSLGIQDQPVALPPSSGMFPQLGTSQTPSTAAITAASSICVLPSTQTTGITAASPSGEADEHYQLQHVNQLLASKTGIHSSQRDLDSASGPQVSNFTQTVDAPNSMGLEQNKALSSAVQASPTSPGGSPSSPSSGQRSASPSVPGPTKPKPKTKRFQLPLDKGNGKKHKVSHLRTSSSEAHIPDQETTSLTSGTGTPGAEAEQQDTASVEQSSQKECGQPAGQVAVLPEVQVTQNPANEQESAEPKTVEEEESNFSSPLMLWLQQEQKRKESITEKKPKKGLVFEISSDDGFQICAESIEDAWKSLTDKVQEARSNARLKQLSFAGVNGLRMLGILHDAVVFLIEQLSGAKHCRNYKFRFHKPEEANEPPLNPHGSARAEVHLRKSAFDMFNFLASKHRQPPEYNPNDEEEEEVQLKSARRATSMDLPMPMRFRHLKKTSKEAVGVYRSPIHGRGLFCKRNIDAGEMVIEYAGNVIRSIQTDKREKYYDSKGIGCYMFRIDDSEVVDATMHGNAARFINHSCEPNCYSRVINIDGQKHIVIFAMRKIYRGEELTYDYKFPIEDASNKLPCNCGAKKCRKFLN
Chain of JunD (P17535 whole entry): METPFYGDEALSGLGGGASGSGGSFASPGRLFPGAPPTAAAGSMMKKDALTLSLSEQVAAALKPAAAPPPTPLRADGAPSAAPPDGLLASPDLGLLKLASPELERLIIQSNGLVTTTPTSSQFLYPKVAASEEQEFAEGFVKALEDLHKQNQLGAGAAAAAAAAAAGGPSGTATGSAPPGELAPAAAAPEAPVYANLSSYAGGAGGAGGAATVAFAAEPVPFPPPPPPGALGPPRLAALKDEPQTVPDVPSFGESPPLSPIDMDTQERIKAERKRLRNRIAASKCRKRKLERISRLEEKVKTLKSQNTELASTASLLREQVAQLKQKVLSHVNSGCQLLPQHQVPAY
Chain of PSIP1 (O75475 whole entry): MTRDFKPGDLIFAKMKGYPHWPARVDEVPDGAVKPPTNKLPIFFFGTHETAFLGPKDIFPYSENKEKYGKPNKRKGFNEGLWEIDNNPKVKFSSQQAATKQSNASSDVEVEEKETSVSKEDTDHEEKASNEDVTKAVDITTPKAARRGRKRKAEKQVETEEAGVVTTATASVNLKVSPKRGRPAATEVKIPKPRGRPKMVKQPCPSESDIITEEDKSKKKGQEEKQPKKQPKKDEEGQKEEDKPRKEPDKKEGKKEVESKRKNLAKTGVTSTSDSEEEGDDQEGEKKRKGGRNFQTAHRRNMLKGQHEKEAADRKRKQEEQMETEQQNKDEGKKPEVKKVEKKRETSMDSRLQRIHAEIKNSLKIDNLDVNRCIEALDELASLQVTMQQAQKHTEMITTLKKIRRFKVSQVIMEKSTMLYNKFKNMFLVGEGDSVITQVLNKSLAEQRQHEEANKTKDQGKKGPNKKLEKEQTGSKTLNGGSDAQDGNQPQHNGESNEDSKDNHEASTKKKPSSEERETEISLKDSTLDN
Chain of DPY30 (Q9C005 whole entry): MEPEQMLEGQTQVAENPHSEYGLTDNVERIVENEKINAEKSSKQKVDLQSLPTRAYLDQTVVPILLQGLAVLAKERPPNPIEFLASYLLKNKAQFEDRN

For the substance “WT menin-GFP (from UniProt O00255-2) E359K”, the other: stoichiometry in [1] is 0.22.
Turning to “WT menin-GFP (from UniProt O00255-2) E366D”, the other: stoichiometry worked out at 0.055 in [1] and 0.06 in assay [2].
For “WT menin-GFP (from UniProt O00255-2) E408Q”, the other: stoichiometry in [3] is 0.055; in assay [1], 0.095; in assay [2] it was 0.12.
Take “WT menin-GFP (from UniProt O00255-2) L168P”: the figures for the other: stoichiometry in assay [4], in [5] and in assay [6] were 0.045, 0.075 and 0.04, respectively.
“WT menin-GFP (from UniProt O00255-2) L264P” registered an other: stoichiometry in assay [5] of 0.11.
For “WT menin-GFP (from UniProt O00255-2) Q141R”, the results for the other: stoichiometry in [5] and in assay [1] were 0.04 and 0.055, respectively.
On to “WT menin-GFP (from UniProt O00255-2) R52G”, for which the other: stoichiometry in assay [1] was 0.05; in assay [2] it was 0.09.
In the case of “WT menin-GFP (from UniProt O00255-2) R322H”, the other: stoichiometry in assay [7] is 0.06; in assay [8] it was 0.23; in [9] it was 0.014; in [10], 0.26; in assay [11] it was 0.053; in [12], 0.028. Further, the other: stoichiometry was 0.068 in [13]; 0.045 in assay [1]; 0.045 in assay [2]; 0.014 in assay [14]; 0.076 in [15]; 0.046 in assay [16]. Also, the other: stoichiometry in [17] came to 0.35. The ratio to parent came to 0.53 in assay [11] (parent: est. 1.0) and 0.8 in [12] (parent: est. 1.0).
